Assay results from patent US10428127B2, “Cyclic, amyloid beta-binding peptides and the use thereof” (FORSCHUNGSZENTRUM JUELICH GMBH, priority 2013, dated 2019).
“Also recorded” adds a separate entry of the source. Non-standard residues stand in square brackets, D forms with d. No end group written: not given here.

How the values were obtained:
[1] = biological target: T1, amyloid beta monomers (Homo sapiens, UniProt P05067); assay: SPR binding kinetics, single-cycle, heterogeneous binding model (FIG. 2); settings: 25° C., high-affinity site
T1 construct: 100% N-terminal biotinylated Aß1-42 without incubation
T1 sequence (P05067 672-713): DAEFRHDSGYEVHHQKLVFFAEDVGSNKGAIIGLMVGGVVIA
Procedure: (§1) 1 mg lyophilized Aß1-42 and N-terminal biotinylated Aß1-42 were each dissolved in 1 ml 100% hexafluoroisopropanol (HFIP) and dissolved overnight at room temperature. For the oligomer and fibril preparation, non-biotinylated Aß was used with N-terminal biotinylated Aß at a ratio of 1:10 and the HFIP was evaporated (Concentrator 5301 from Eppendorf). The resultant Aß film, at a final concentration of 80 μM, was placed in sodium phosphate buffer (10 mM, pH 7.4) and incubated (RT, 600 rpm). The incubation time was 3 h for the oligomer preparation, and 24 h for the fibril preparation. 100% N-terminal biotinylated Aß1-42 without incubation was used for the preparation of monomers.
(§2) The density gradient centrifugation was carried out subsequent to the Aß preparation to purify the respective Aß species according to the size of the same. An iodixanol gradient in 10 mM sodium phosphate buffer, pH 7.4 with rising concentrations from 50% to 5% v/v iodixanol was used for this purpose. 100 μl of the Aß sample was applied and separated by way of ultracentrifugation (3 h, 4° C., 259000 g). […]
(§3) Binding kinetics were likewise measured by way of SPR spectroscopy using a T200 device from Biacore (GE Healthcare). […] The binding curves were evaluated by way of kinetic fit models (heterogeneous binding model) using the Biacore T200 evaluation software (version 2.0). […]

[2] = test system: APPsDI mice; assay: Morris water maze (MWW) test, spatial memory (FIG. 5); assay type: in vivo; settings: five consecutive days, compared to saline
Procedure: The test measures the spatial memory of animals, which here were genetically engineered APPsDI mice.
The time is measured in seconds that an animal requires to locate a platform hidden closely beneath the water surface in a water tank. This is measured in several experiments per day on several consecutive days. […] The search time is plotted in seconds on five consecutive days for mice that were treated with the peptide according to the invention cD3R (SEQ ID NO. 5), compared to placebo experiments (saline).

[3] = biological target: T2, amyloid beta oligomers (Homo sapiens, UniProt P05067); assay: SPR binding kinetics, single-cycle, heterogeneous binding model (FIG. 3)
T2 construct: 1 mg lyophilized Aß1-42 and N-terminal biotinylated Aß1-42; biotin (only on part of the peptide molecules)
T2 sequence (P05067 672-713): as above
Procedure: as §1
The density gradient centrifugation was carried out subsequent to the Aß preparation to purify the respective Aß species according to the size of the same. An iodixanol gradient in 10 mM sodium phosphate buffer, pH 7.4 with rising concentrations from 50% to 5% v/v iodixanol was used for this purpose. 100 μl of the Aß sample was applied and separated by way of ultracentrifugation (3 h, 4° C., 259000 g). Subsequently, the gradient was fractionated into 14 fractions, 140 μl each. Monomeric Aß are present in the first two top fractions, Aß oligomers in fractions 4 to 6, and Aß fibrils in fractions 11 to 13.
A T200 from Biacore (GE Healthcare) was used for SPR spectroscopy. The Aß species purified by way of density gradient centrifugation were directly immobilized on a sensor chip (Series S Sensor Chips SA) according to the manufacturer's instructions by way of biotin-streptavidin coupling. 1×PBS was used as the running buffer. Loading took place at 25° C. and a flow rate of 5 μl/min. Subsequently, the flow cells were freed from non-specifically bound ligand overnight at a steady flow of 30 μl/min.
Binding kinetics were likewise measured by way of SPR spectroscopy using a T200 device from Biacore (GE Healthcare). The standard conditions are 25° C. and a flow rate of 30 μl/min. Different lyophilizates of the D peptides were placed in the 1×PBS running buffer and serially diluted. The method used was a “single-cycle” kinetics method, wherein five increasing analyte concentrations were pumped over the immobilized flow cells. The contact times selected, depending on the analyte, were 90 to 120 s for association and dissociation and 1800 to 5400 s for the final dissociation. The sensorgrams were double referenced with the aid of an unloaded flow cell and the running buffer that was used. The binding curves were evaluated by way of kinetic fit models (heterogeneous binding model) using the Biacore T200 evaluation software (version 2.0).
FIGS. 2 to 4 show the results on the binding behavior of the cyclized peptides according to the invention (affinity study). The figures show data for the kinetic evaluation of the binding strength of the various candidates to amyloid beta monomers (FIG. 2), amyloid beta oligomers (FIG. 3), and amyloid beta fibrils (FIG. 4). The two binding constants that result when fitting a heterogeneous binding model are shown in each case, plotted as white bars and black bars. It is important to remember that a logarithmic scale is shown here, which means that minor differences in the bar size represent major differences in the dissociation constant KD. White bars are the respective low-affinity sites and the binding strengths thereof, and black bars show the high-affinity binding sites and the binding strengths thereof. […]

[4] = biological target: T3, amyloid beta fibrils (Homo sapiens, UniProt P05067); assay: SPR binding kinetics, single-cycle, heterogeneous binding model (FIG. 4); settings: 25° C., high-affinity site
T3 construct: 1 mg lyophilized Aß1-42 and N-terminal biotinylated Aß1-42; biotin (only on part of the peptide molecules)
T3 sequence (P05067 672-713): as above
Procedure: as §1, §2, §3

[5] = test system: transgenic AD mice; settings: oral administration with drinking water; cited from earlier work
[6] = biological target: T4, A beta monomer (Homo sapiens, UniProt P05067); assay: Density gradient centrifugation fractions treated with peptide, A beta size distribution (FIG. 1); assay type: biochemical; settings: fractions 1 to 2 of density gradient
T4 construct: approximately 20 nM or 1.8 ng Aß 1-42
T4 sequence (P05067 672-713): as above
Procedure: (§4) Thereafter, the resultant fractions are treated with and without an active ingredient and determined by way of RP-HPLC, for example. In this way, it is possible to determine the effectiveness of the active ingredient.
(§5) A further method is described hereafter. The so-called QIAD (quantitative determination of interference with Aß aggregate size distribution) test can be used for the quantitative analysis of active ingredients. The method for quantitatively analyzing the influence of an active ingredient on the particle size distribution of amyloid peptides and/or proteins in a sample comprises the following steps. […] This change is established quantitatively. […] Finally, the concentration of A beta in the respective fraction is determined by completely denaturing the A beta species during a reverse phase (RP-)HPLC carried out subsequent to the fractionating. […] Eluting A beta is detected by way of UV absorption at 215 nm. […] Depending on the fraction, the mean value from multiple, for example six, experiments conducted independently of one another can be calculated with the resulting standard deviation. The advantage of HPLC analysis is that detection is very sensitive (such as approximately 20 nM or 1.8 ng Aß 1-42) and quantification is reliable independently of the state of aggregation and the solvent. […]

[7] = biological target: T5, A beta oligomers (Homo sapiens, UniProt P05067); assay: as above; assay type: biochemical; settings: fractions 4 to 8 (or 4 to 10) of density gradient; peptide 20 μM; versus control and linear D3
T5 construct: approximately 20 nM or 1.8 ng Aß 1-42
T5 sequence (P05067 672-713): as above
Procedure: as §4, §5

## rprtrlhthrnrr (cyclo([dR][dP][dR][dT][dR][dL][dH][dT][dH][dR][dN][dR][dR])) [cD3r]
[1]
  KD (kinetics), binding affinity to amyloid beta monomers: particularly high affinity
[2]
  learning (search time to locate hidden platform): significant
[3]; SPR, 25° C., high-affinity site, compared with other cyclized peptides
  KD (kinetics), binding strength to amyloid beta oligomers: binds even more strongly by two orders of magnitude than the other cyclized peptides
[4]
  KD (kinetics), binding strength to amyloid beta fibrils: does very well

## rprtrlhthrnr ([dR][dP][dR][dT][dR][dL][dH][dT][dH][dR][dN][dR]) [D3, D-enantiomeric linear peptide known from WO 02/081505 A2]
[5]
  cognitive abilities of treated mice: significantly improved cognitive abilities
  plaque in treated mice: considerably less plaque
[3]; fit of SPR binding data
  binding sites bound on amyloid beta oligomer: binds only a low-affinity site, but not a high-affinity site

## rkrtrlhthrnr (cyclo([dR][dK][dR][dT][dR][dL][dH][dT][dH][dR][dN][dR])) [cD3P2K]
[4]
  KD (kinetics), binding strength to amyloid beta fibrils: sub-pM binding range

## rprtrlhthrnr (cyclo([dR][dP][dR][dT][dR][dL][dH][dT][dH][dR][dN][dR]); SMILES CC(C)C[C@H]1NC(=O)[C@@H](CCCNC(=N)N)NC(=O)[C@@H]([C@H](C)O)NC(=O)[C@@H](CCCNC(=N)N)NC(=O)[C@H]2CCCN2C(=O)[C@@H](CCCNC(=N)N)NC(=O)[C@@H](CCCNC(=N)N)NC(=O)[C@@H](CC(N)=O)NC(=O)[C@@H](CCCNC(=N)N)NC(=O)[C@@H](Cc2c[nH]cn2)NC(=O)[C@@H]([C@H](C)O)NC(=O)[C@@H](Cc2c[nH]cn2)NC1=O) [cD3, cyclized D3, N-terminal amino group and C-terminal carboxyl group coupled by an amide bond]
[6]
  influence on the A beta monomer concentration: no influence
[7]
  elimination / decrease of A beta oligomer concentration: eliminates the oligomers in fractions 4 to 8 even more efficiently than linear D3; also recorded: clear decrease in the A beta oligomer concentration
[3]; from Rmax 79/21%
  number of low-affinity sites relative to high-affinity sites: approximately 4 times
[3]; high-affinity site (KD2)
  Rmax, contribution of high-affinity site (KD2) to RU total loading: 21%
[3]; low-affinity site (white bar)
  Rmax, contribution of low-affinity site to RU total loading: 79%
